The target in test [1] is T1, soluble extracellular region of human CD38 fused to a 6-His-tag (human, UniProt P28907 43-300).
T1 construct: also called human CD38 extracellular domain with a poly-histidine tag; human CD38 antigen
The test can be described thus: SPR, antibody captured on protein G, CD38-His injected. In general terms: Surface plasmon resonance follows binding to a sensor surface in real time, without labels.

Test [2] addresses human CD38 on cells (human, UniProt P28907 1-300). Kind of test: cell-based or functional assay.

B1: humanized HB-7 best-fit antibody (antibody, human IgG1, kappa, V domains shown)
VH: QVQLQESGPGLVKPSETLSLTCTVSGFSLISYGVHWVRQPPGKGLEWLGVIWRGGSTDYNAAFMSRLTISKDNSKNQVSLKLSSVTAADTAVYFCAKTLITTGYAMDYWGQGTLVTVSS
VL: DIQLTQSPSSLSASVGDRVTITCRASEDIYNRLAWYQQKPGKAPKLLISGATSLETGVPSRFSGSGSGKDYTLTISSLQPEDFATYYCQQYWSTPTFGQGTKLEIKR
notes: Human IgG1 format
As for B1, the equilibrium dissociation constant (Kd) – broadly, the concentration at which binding is half-saturated – in test [1] came to 3.6 nM.

B2: BEAT CD38-9G7Mouse/CD3 (bispecific antibody, human IgG1, kappa, L234A L235A)
heavy: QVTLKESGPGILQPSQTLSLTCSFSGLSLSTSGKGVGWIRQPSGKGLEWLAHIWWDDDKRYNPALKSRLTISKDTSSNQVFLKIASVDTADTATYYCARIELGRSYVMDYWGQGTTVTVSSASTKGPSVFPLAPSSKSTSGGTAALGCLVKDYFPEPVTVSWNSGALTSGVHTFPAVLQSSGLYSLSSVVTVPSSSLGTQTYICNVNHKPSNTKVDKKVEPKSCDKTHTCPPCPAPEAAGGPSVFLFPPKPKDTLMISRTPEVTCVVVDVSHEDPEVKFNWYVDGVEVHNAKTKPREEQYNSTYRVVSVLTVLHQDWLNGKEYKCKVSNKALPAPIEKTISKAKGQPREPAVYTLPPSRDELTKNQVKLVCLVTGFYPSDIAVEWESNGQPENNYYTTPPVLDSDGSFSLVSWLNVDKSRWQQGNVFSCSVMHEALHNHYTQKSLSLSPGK
light: DIVMTQSHKFMSTSVGDRVSISCKASQDVITSVAWFQQKPGQSPKLLIYSASYRYTGVPDRFTGSGSGTDFTFTISSVQAEDLAVYYCQQHYTIPLTFGAGTKLELKRTVAAPSVFIFPPSDEQLKSGTASVVCLLNNFYPREAKVQWKVDNALQSGNSQESVTEQDSKDSTYSLSSTLTLSKADYEKHKVYACEVTHQGLSSPVTKSFNRGEC
scFv: EVQLVESGGGLVQPGGSLRLSCAASGYTFTRYTMHWVRQAPGKGLEWIGYINPSRGYTYYADSVKGRFTLSTDKSKNTAYLQMSSLRAEDTAVYYCARYYDDHYCLDYWGQGTLVTVSSGGGGSGGGGSGGGGSDIQLTQSPSSLSASVGDRVTITCRASSSVSYVAWYQQKPGKAPKRWIYDTSKLYSGVPSRFSGSGSGTDYTLTISSLQPEDFATYYCQQWSSNPPTFGQGTKVEIKGGGGTDKTHTCPPCPAPEAAGGPSVFLFPPKPKDTLMISRTPEVTCVVVDVSHEDPEVQFKWYVDGVEVHNAKTKPREEQYNSTFRVVSVLTVLHQDWLNGKEYKCKVSNKALPAPIEKTISKTKGQPREPEVATFPPSREEMTKNQVTLVCLVTGFYPSDIAVEWESSGQPENNYNTDPPLLESDGSFALSSRLRVDKSRWQQGNIFSCSVMHEALHNRFTQKSLSLSPGK
For the molecule B2, in test [2], the “EC50, killing of Daudi cells (flow cytometry, PBMCs, 48h)” value came out at 0.0032 nM.

B3: BEAT CD38-OKT10Mouse/CD3 (bispecific antibody, human IgG1, kappa, L234A L235A)
heavy: QVELVESGGSLKLSCAASGFDFSRSWMNWVRQAPGKGLEWIGEINPDSSTINYTTSLKDKFIISRDNAKNTLYLQMTKVRSEDTALYYCARYGNWFPYWGQGTLVTVSSASTKGPSVFPLAPSSKSTSGGTAALGCLVKDYFPEPVTVSWNSGALTSGVHTFPAVLQSSGLYSLSSVVTVPSSSLGTQTYICNVNHKPSNTKVDKKVEPKSCDKTHTCPPCPAPEAAGGPSVFLFPPKPKDTLMISRTPEVTCVVVDVSHEDPEVKFNWYVDGVEVHNAKTKPREEQYNSTYRVVSVLTVLHQDWLNGKEYKCKVSNKALPAPIEKTISKAKGQPREPAVYTLPPSRDELTKNQVKLVCLVTGFYPSDIAVEWESNGQPENNYYTTPPVLDSDGSFSLVSWLNVDKSRWQQGNVFSCSVMHEALHNHYTQKSLSLSPGK
light: DILMTQSQKIMPTSVGDRVSVTCKASQNVDTNVAWYQQKPGQSPKALIYSASYRYSGVPDRFTGSGSGTDFTLTITNVQSEDLAEYFCQQYDSYPLTFGAGTKLDLKRTVAAPSVFIFPPSDEQLKSGTASVVCLLNNFYPREAKVQWKVDNALQSGNSQESVTEQDSKDSTYSLSSTLTLSKADYEKHKVYACEVTHQGLSSPVTKSFNRGE
scFv: EVQLVESGGGLVQPGGSLRLSCAASGYTFTRYTMHWVRQAPGKGLEWIGYINPSRGYTYYADSVKGRFTLSTDKSKNTAYLQMSSLRAEDTAVYYCARYYDDHYCLDYWGQGTLVTVSSGGGGSGGGGSGGGGSDIQLTQSPSSLSASVGDRVTITCRASSSVSYVAWYQQKPGKAPKRWIYDTSKLYSGVPSRFSGSGSGTDYTLTISSLQPEDFATYYCQQWSSNPPTFGQGTKVEIKGGGGTDKTHTCPPCPAPEAAGGPSVFLFPPKPKDTLMISRTPEVTCVVVDVSHEDPEVQFKWYVDGVEVHNAKTKPREEQYNSTFRVVSVLTVLHQDWLNGKEYKCKVSNKALPAPIEKTISKTKGQPREPEVATFPPSREEMTKNQVTLVCLVTGFYPSDIAVEWESSGQPENNYNTDPPLLESDGSFALSSRLRVDKSRWQQGNIFSCSVMHEALHNRFTQKSLSLSPGK
Turning to B3, the “EC50, killing of Daudi cells (flow cytometry, PBMCs, 48h)” value in test [2] came out at 0.126 nM.

B4: chimeric HB-7 antibody (antibody, human IgG1, kappa, V domains shown)
VH: KVQLQESGPSLVQPSQRLSITCTVSGFSLISYGVHWVRQSPGKGLEWLGVIWRGGSTDYNAAFMSRLSITKDNSKSQVFFKMNSLQADDTAIYFCAKTLITTGYAMDYWGQGTTVTVSS
VL: DIELTQSPSSFSVSLGDRVTITCKASEDIYNRLAWYQQKPGNAPRLLISGATSLETGVPSRFSGSGSGKDYTLSITSLQTEDVATYYCQQYWSTPTFGGGTKLEIKR
On to B4, for which, in test [1], the affinity, expressed as Kd, was 2.5 nM.

B5: BEAT CD38-HB7bestfit/CD3 antibody (bispecific antibody, human IgG1, kappa, L234A L235A)
heavy: QVQLQESGPGLVKPSETLSLTCTVSGFSLISYGVHWVRQPPGKGLEWLGVIWRGGSTDYNAAFMSRLTISKDNSKNQVSLKLSSVTAADTAVYFCAKTLITTGYAMDYWGQGTLVTVSSASTKGPSVFPLAPSSKSTSGGTAALGCLVKDYFPEPVTVSWNSGALTSGVHTFPAVLQSSGLYSLSSVVTVPSSSLGTQTYICNVNHKPSNTKVDKKVEPKSCDKTHTCPPCPAPEAAGGPSVFLFPPKPKDTLMISRTPEVTCVVVDVSHEDPEVKFNWYVDGVEVHNAKTKPREEQYNSTYRVVSVLTVLHQDWLNGKEYKCKVSNKALPAPIEKTISKAKGQPREPAVYTLPPSRDELTKNQVKLVCLVTGFYPSDIAVEWESNGQPENNYYTTPPVLDSDGSFSLVSWLNVDKSRWQQGNVFSCSVMHEALHNHYTQKSLSLSPGK
light: DIQLTQSPSSLSASVGDRVTITCRASEDIYNRLAWYQQKPGKAPKLLISGATSLETGVPSRFSGSGSGKDYTLTISSLQPEDFATYYCQQYWSTPTFGQGTKLEIKRTVAAPSVFIFPPSDEQLKSGTASVVCLLNNFYPREAKVQWKVDNALQSGNSQESVTEQDSKDSTYSLSSTLTLSKADYEKHKVYACEVTHQGLSSPVTKSFNRGEC
scFv: EVQLVESGGGLVQPGGSLRLSCAASGYTFTRYTMHWVRQAPGKGLEWIGYINPSRGYTYYADSVKGRFTLSTDKSKNTAYLQMSSLRAEDTAVYYCARYYDDHYCLDYWGQGTLVTVSSGGGGSGGGGSGGGGSGGGASDIQLTQSPSSLSASVGDRVTITCRASSSVSYVAWYQQKPGKAPKRWIYDTSKLYSGVPSRFSGSGSGTDYTLTISSLQPEDFATYYCQQWSSNPPTFGQGTKVEIKGGGGTDKTHTCPPCPAPEAAGGPSVFLFPPKPKDTLMISRTPEVTCVVVDVSHEDPEVQFKWYVDGVEVHNAKTKPREEQYNSTFRVVSVLTVLHQDWLNGKEYKCKVSNKALPAPIEKTISKTKGQPREPEVATFPPSREEMTKNQVTLVCLVTGFYPSDIAVEWESSGQPENNYNTDPPLLESDGSFALSSRLRVDKSRWQQGNIFSCSVMHEALHNRFTQKSLSLSPGK
B5: the “EC50, T cell redirected killing of RPMI 8226 myeloma cells (RDL-FACS, purified T cells, 48h)” value in test [2] was 0.0022 nM. This molecule also displayed a Kd in test [1] of 3.2 nM.

B6: BEAT CD38-HB7bestfit/CD3(SP34) antibody (bispecific antibody)
heavy: QVQLQESGPGLVKPSETLSLTCTVSGFSLISYGVHWVRQPPGKGLEWLGVIWRGGSTDYNAAFMSRLTISKDNSKNQVSLKLSSVTAADTAVYFCAKTLITTGYAMDYWGQGTLVTVSSASTKGPSVFPLAPSSKSTSGGTAALGCLVKDYFPEPVTVSWNSGALTSGVHTFPAVLQSSGLYSLSSVVTVPSSSLGTQTYICNVNHKPSNTKVDKKVEPKSCDKTHTCPPCPAPEAAGGPSVFLFPPKPKDTLMISRTPEVTCVVVDVSHEDPEVQFKWYVDGVEVHNAKTKPREEQYNSTFRVVSVLTVLHQDWLNGKEYKCKVSNKALPAPIEKTISKTKGQPREPAVYTLPPSREEMTKNQVKLVCLVTGFYPSDIAVEWESSGQPENNYYTTPPMLDSDGSFSLVSWLNVDKSRWQQGNIFSCSVMHEALHNRFTQKSLSLSPGK
light: DIQLTQSPSSLSASVGDRVTITCRASEDIYNRLAWYQQKPGKAPKLLISGATSLETGVPSRFSGSGSGKDYTLTISSLQPEDFATYYCQQYWSTPTFGQGTKLEIKRTVAAPSVFIFPPSDEQLKSGTASVVCLLNNFYPREAKVQWKVDNALQSGNSQESVTEQDSKDSTYSLSSTLTLSKADYEKHKVYACEVTHQGLSSPVTKSFNRGEC
scFv: not shown
Take B6: the “EC50, T cell redirected killing of Daudi cells (RDL-FACS, PBMCs, 24h)” value in test [2] was determined as 0.0018 nM.

The record behind these values is patent publication WO2016071355A1 (dated 2016).
